Experiments:
[1] = biological target: CXCR3 on primary human T lymphocytes stimulated with PHA and IL-2 (human (endogenous in primary T lymphocytes)) (UniProt P49682)
[2] = biological target: CXC chemokine receptor 3 isoform A (CXCR3A) on transfected CHO cells (UniProt P49682)

Substance: C-terminally truncated CXCL10(1-73) (from UniProt P02778 22-94) (ligand)
- CXCR3 internalization: mean MFI of surface CXCR3 on PHA- and IL-2-stimulated primary T lymphocytes, as % of medium-treated cells, after 45 nM (90.1%) or 90 nM (83.3%) for 10 min at 37 °C [1]: 90.1%
- desensitization: reduction of the calcium increase to 3 nM CXCL10(1-77) in CXCR3A-transfected CHO cells when 45 nM (69.9%) or 90 nM (72.2%) CXCL10(1-73) was added 100 s before [2]: 72.2%

From publication PMC10835923
